Laboratory results as given in article PMC12666738.

T1: GST-tagged C-terminal domain of Nrxn1β, Q63373
T1 chain: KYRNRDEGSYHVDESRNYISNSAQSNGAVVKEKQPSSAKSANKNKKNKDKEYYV

T2: GST-tagged C-terminal domain of SALM1, Q9ULH4
T2 chain: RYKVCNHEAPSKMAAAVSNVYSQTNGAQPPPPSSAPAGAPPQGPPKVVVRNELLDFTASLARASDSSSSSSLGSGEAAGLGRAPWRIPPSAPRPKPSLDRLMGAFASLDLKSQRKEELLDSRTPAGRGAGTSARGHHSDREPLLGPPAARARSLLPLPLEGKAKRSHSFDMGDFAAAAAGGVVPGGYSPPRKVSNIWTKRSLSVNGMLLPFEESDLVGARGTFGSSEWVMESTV

T3: GST-tagged C-terminal domain of CNTNAP2, Q9UHC6
T3 chain: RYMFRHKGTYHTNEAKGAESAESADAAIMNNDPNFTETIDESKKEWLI


Legend:
[1] = molecular target: mRFP-tagged CASK I672V (human) (UniProt O14936); assay: co-IP; HEK293T cells cotransfected, lysed in RIPA buffer 24 h after transfection; mRFP-tagged CASK precipitated with magnetic RFP-Trap beads, 2 h at 4°C, five washes in RIPA; Western blot
[2] = molecular target: T1, GST-tagged C-terminal domain of Nrxn1β, …; assay: pull-down; conditions: chain shown with the change; n = 4; His6-signals normalized to GST-signals derived from the same blot; parent: est. 2.9; read off a plot
[3] = molecular target: T2, GST-tagged C-terminal domain of SALM1, …; assay: pull-down; conditions: chain shown with the change; n = 4; His6-signals normalized to GST-signals derived from the same blot; parent: est. 0.85; read off a plot
[4] = molecular target: T3, GST-tagged C-terminal domain of …; assay: pull-down; conditions: chain shown with the change; n = 4; His6-signals normalized to GST-signals derived from the same blot; parent: est. 3.1; read off a plot

Row | reduction of bound Nrxn1β against CASK WT [1] [%] | response [2] | response [3] | response [4] | Molecule
1 | 50 |  |  |  | HA-tagged Neurexin-1β (from UniProt Q63373 47-468) (natural protein)
2 |  | 0.9 | 0.15 | 0.45 | His6-SUMO-tagged CASK PSG supramodule WT, O14936-2 Y723C (protein) MADDDVLFEDVYELCEVIGKGPFSVVRRCINRETGQQFAVKIVDVAKFTSSPGLSTEDLKREASICHMLKHPHIVELLETYSSDGMLYMVFEFMDGADLCFEIVKRADAGFVYSEAVASHYMRQILEALRYCHDNNIIHRDVKPHCVLLASKENSAPVKLGGFGVAIQLGESGLVAGGRVGTPHFMAPEVVKREPYGKPVDVWGCGVILFILLSGCLPFYGTKERLFEGIIKGKYKMNPRQWSHISESAKDLVRRMLMLDPAERITVYEALNHPWLKERDRYAYKIHLPETVEQLRKFNARRKLKGAVLAAVSSHKFNSFYGDPPEELPDFSEDPTSSGLLAAERAVSQVLDSLEEIHALTDCSEKDLDFLHSVFQDQHLHTLLDLYDKINTKSSPQIRNPPSDAVQRAKEVLEEISCYPENNDAKELKRILTQPHFMALLQTHDVVAHEVYSDEALRVTPPPTSPYLNGDSPESANGDMDMENVTRVRLVQFQKNTDEPMGITLKMNELNHCIVARIMHGGMIHRQGTLHVGDEIREINGISVANQTVEQLQKMLREMRGSITFKIVPSYRTQSSSCERDSPSTSRQSPANGHSSTNNSVSDLPSTTQPKGRQIYVRAQFEYDPAKDDLIPCKEAGIRFRVGDIIQIISKDDHNWWQGKLENSKNGTAGLIPSPELQEWRVACIAMEKTKQEQQASCTWFGKKKKQYKDKYLAKHNADLVTCEEVVKLPAFKRKTLVLLGAHGVGRRHIKNTLITKHPDRFAYPIPHTTRPPKKDEENGKNYYFVSHDQMMQDISNNEYLEYGSHEDAMYGTKLETIRKIHEQGLIAILDVEPQALKVLRTAEFAPFVVFIAAPTITPGLNEDESLQRLQKESDILQRTYAHYFDLTIINNEIDETIRHLEEAVELVCTAPQWVPVSWVY
3 |  | 1 | 0.15 | 0.45 | His6-SUMO-tagged CASK PSG supramodule WT, O14936-2 P673L (protein) MADDDVLFEDVYELCEVIGKGPFSVVRRCINRETGQQFAVKIVDVAKFTSSPGLSTEDLKREASICHMLKHPHIVELLETYSSDGMLYMVFEFMDGADLCFEIVKRADAGFVYSEAVASHYMRQILEALRYCHDNNIIHRDVKPHCVLLASKENSAPVKLGGFGVAIQLGESGLVAGGRVGTPHFMAPEVVKREPYGKPVDVWGCGVILFILLSGCLPFYGTKERLFEGIIKGKYKMNPRQWSHISESAKDLVRRMLMLDPAERITVYEALNHPWLKERDRYAYKIHLPETVEQLRKFNARRKLKGAVLAAVSSHKFNSFYGDPPEELPDFSEDPTSSGLLAAERAVSQVLDSLEEIHALTDCSEKDLDFLHSVFQDQHLHTLLDLYDKINTKSSPQIRNPPSDAVQRAKEVLEEISCYPENNDAKELKRILTQPHFMALLQTHDVVAHEVYSDEALRVTPPPTSPYLNGDSPESANGDMDMENVTRVRLVQFQKNTDEPMGITLKMNELNHCIVARIMHGGMIHRQGTLHVGDEIREINGISVANQTVEQLQKMLREMRGSITFKIVPSYRTQSSSCERDSPSTSRQSPANGHSSTNNSVSDLPSTTQPKGRQIYVRAQFEYDPAKDDLIPCKEAGIRFRVGDIIQIISKDDHNWWQGKLENSKNGTAGLILSPELQEWRVACIAMEKTKQEQQASCTWFGKKKKQYKDKYLAKHNADLVTYEEVVKLPAFKRKTLVLLGAHGVGRRHIKNTLITKHPDRFAYPIPHTTRPPKKDEENGKNYYFVSHDQMMQDISNNEYLEYGSHEDAMYGTKLETIRKIHEQGLIAILDVEPQALKVLRTAEFAPFVVFIAAPTITPGLNEDESLQRLQKESDILQRTYAHYFDLTIINNEIDETIRHLEEAVELVCTAPQWVPVSWVY
4 |  | 0.9 | 0.7 | 1.5 | His6-SUMO-tagged CASK PSG supramodule WT, O14936-2 G521V (protein) MADDDVLFEDVYELCEVIGKGPFSVVRRCINRETGQQFAVKIVDVAKFTSSPGLSTEDLKREASICHMLKHPHIVELLETYSSDGMLYMVFEFMDGADLCFEIVKRADAGFVYSEAVASHYMRQILEALRYCHDNNIIHRDVKPHCVLLASKENSAPVKLGGFGVAIQLGESGLVAGGRVGTPHFMAPEVVKREPYGKPVDVWGCGVILFILLSGCLPFYGTKERLFEGIIKGKYKMNPRQWSHISESAKDLVRRMLMLDPAERITVYEALNHPWLKERDRYAYKIHLPETVEQLRKFNARRKLKGAVLAAVSSHKFNSFYGDPPEELPDFSEDPTSSGLLAAERAVSQVLDSLEEIHALTDCSEKDLDFLHSVFQDQHLHTLLDLYDKINTKSSPQIRNPPSDAVQRAKEVLEEISCYPENNDAKELKRILTQPHFMALLQTHDVVAHEVYSDEALRVTPPPTSPYLNGDSPESANGDMDMENVTRVRLVQFQKNTDEPMGITLKMNELNHCIVARIMHVGMIHRQGTLHVGDEIREINGISVANQTVEQLQKMLREMRGSITFKIVPSYRTQSSSCERDSPSTSRQSPANGHSSTNNSVSDLPSTTQPKGRQIYVRAQFEYDPAKDDLIPCKEAGIRFRVGDIIQIISKDDHNWWQGKLENSKNGTAGLIPSPELQEWRVACIAMEKTKQEQQASCTWFGKKKKQYKDKYLAKHNAVFDQLDLVTYEEVVKLPAFKRKTLVLLGAHGVGRRHIKNTLITKHPDRFAYPIPHTTRPPKKDEENGKNYYFVSHDQMMQDISNNEYLEYGSHEDAMYGTKLETIRKIHEQGLIAILDVEPQALKVLRTAEFAPFVVFIAAPTITPGLNEDESLQRLQKESDILQRTYAHYFDLTIINNEIDETIRHLEEAVELVCTAPQWVPVSWVY
